{"source": "a protein production outcome set (Wang et al. 2014)", "test": "label from the status in PepcDB records"}
{"sequence": "MAGTTEITTKPERVVVLDTGELDSVLSLGITPVGMTTTKGANPVPSYLADKVKDVERVGTINELNIEAIAALKPDLIIGSQLRADKLYPQLSDIAPTVFSIRPGSPWKENFLLVGEALGMEKEAEEKLNEYADRVAELKNNVPQNTEVSLVRFMPNKLRLYGNKSLIGVVLADAGLARPEKQNVDDLAVEISPENIDQAAGSVIFYTSYGKPDATGETAVVEGPAWKNLEAVAAGKAHRVNDDVWFLGLGPTGAMEIVSDLHDYLLEHHHHHH", "values": [{"measurement": "protein production", "result": "not failed"}]}
{"sequence": "MAIESGYILTTPCKNEEKSLPELAESIINQTITPKLWLIINDNSTDNSAKILRDIETKYNWIRVVTSEGQKRDLSFHYAEVVRYGLSLSLEISSAEKIPVEYIGLIDADMILEKNFFEKMIDRFEQDPNLGVASGSTAYFEAENLVTEKGRDNLPIGGLRVWRRECLIETGGFPLSYSADSVSNVLALLHGWETKKFEDIIGIQTRRTGSAEGLWKGYITKGESDYYRDYHPVYVLSKFIKYSFTHPFYIGIAYMEGYINGIVKIKKKICIPEVRRYYRKKHLEIGRYYAGKFKFKLLEHHHHHH", "values": [{"measurement": "protein production", "result": "failed"}]}
{"sequence": "ILIQINPLDNVAIVVNDHGLEKQTVIEEYQLTLVDDVPQGHKVLLKALKKDEAIIRYGEIIGYANADLEAGRWVNESVTRMPEA", "values": [{"measurement": "protein production", "result": "failed"}]}
{"sequence": "MQTVQALLTAAKVDGAKSPYDTIHIKVLYPAKNTDSNLEKSWGMLPIDTAQAPLPVMIFFNGFNCDAQKYQWLGIELAQTGLVVVMFNWVGESLPGLVSFTPGFEIEKRKREFYGTAPTASALPAILTTLAQLQREGILAGTLDLEKIILGGHSEGGRVAMENANPNFFPQVVASFAYGSHTAGAVMLGYKPNTILPLPDTLPRLVIGGTHDGVIASSSSHFGLNTKDATTPVIRTFQEAIMGGHENSYLLILRGANHFSIVDIVDSTLALPFKDIPATQPQEHFRLLLATIIHLFIDAHVRHQPEAFQKLEQL", "values": [{"measurement": "protein production", "result": "failed"}]}
{"sequence": "MFAQLVMGPAGSGKSTYCHALQQHGEIVGQLVHVVNLDPAAERFEYKPVADIRDLITVTDVAEELSLGPNGSLVYCMEYLLEDQDWLEQVLSETAEDDYLVFDMPGQIELYTHFECVRQFVYVLQSQFSMRVCSIFLLDAQFLADASKFFAGSLTAMAAMLHLGLPHLNVLSKADLLRHRIEHRDNTLEPLSSDAEAPNSDEALDEFLERFLNPDIQSLVSELSEQMDTRYRALNERIGALLEDYAIVQFVPYSATDEDSIGELLLRANLLLQYDDDRDVRIHPELD", "values": [{"measurement": "protein production", "result": "failed"}]}
{"sequence": "MSNAIEINELHWLLAVTQNIDVGIVVLDLNYRVTVWNTFMENRSGVVPYVAIDKTFFELFPEVNRQWLSKKIDNVVTLGTPAFTIWEQRPYLVRFKNYQPITGHEEFMYQNTTLFPLRSTTGAISHVCLVIYDVTDVAANRNQLQAANDKLQQLSGAEQK", "values": [{"measurement": "protein production", "result": "not failed"}]}
{"sequence": "MEQRRLASTEWVDIVNEENEVIAQASREQMRAQCLRHRATYIVVHDGMGKILVQRRTETKDFLPGMLDATAGGVVQADEQLLESARREAEEELGIAGVPFAEHGQFYFEDKNCRVWGALFSCVSHGPFALQEDEVSEVCWLTPEEITARCDEFTPDSLKALALWMKRNAKNEAVETETAE", "values": [{"measurement": "protein production", "result": "not failed"}]}
{"sequence": "MSKVLQISSAIPELDYANIPKEIIPFLASYNLIPQLLSQRIIESAIAPITCTQAEISHALDQFYQHWDLTTAEKIKDWCLRYGLNAEKLKLLATRKLRVEKFKQINWRHQLESYFLKRKKYLDRVIYSLIQTENKSVVNELFFRIAEGEDSFAELARKYSQGAEADRGGIIGPVELGSITPNFAQLLYTSQVGVVQPPVAFGNTWVIVRVEKLIPAQLDDFMRQRLLQENFEDWFQQQLNQLSPEEKIWMGINPKSDQVQEMA", "values": [{"measurement": "protein production", "result": "failed"}]}
{"sequence": "MTTTMSTLPVVLVDEILARVPITSLRSLRSTCKKWEASSKTNLVGGKATARKSSHVGFILIGDKICSMKLDLNGGDDFVDTSVNQVSAFDGFAISQLFHCDGLLFCISNNHYSNYTLMVCNMYLGETRLIQNRSLFESYQNFCSYAFGYDSSKNRNHKILRNNSVSGGYEIYSLKSDSWKDLNVDLEKSIHLWRLGSVSLKGNAYFRVIKVIEEGVWEYNLLCFDFTRESFGKLLSLPFESLGDEGEGIMVISCVRDDHLAVLYQRDTLGIWISTEIEPNKVSWREFLQVDLATLDGFPDVFIAGRFIVDEEKQVVVVFGQETELDLNHGNAFIFGRDGYFTSFTVGDAPPEDFTSYVPSLVSLQIDKTGKRKARDD", "values": [{"measurement": "protein production", "result": "failed"}]}
{"sequence": "NYLRDQVVMVGYGEVGRRITKTLMQQEIKVVIAEENREIVEDLRKKGIAAVSGEATEPSVLIQAHIMHARMLILSPMDILDIHRIVDIAKQLNPQIEVLCCAENKEEAEIIRQDEIGLVFYAKEEMAKNMSHHILGQIERAHHLSLGH", "values": [{"measurement": "protein production", "result": "failed"}]}
{"sequence": "VDKCDEPLSILVRNNKGRSSTYEVRLTQTVAHLKQQVSGLEGVQDDLFWLTFEGKPLEDQLPLGEYGLKPLSTVFMNLRLRGGGTEP", "values": [{"measurement": "protein production", "result": "failed"}]}
{"sequence": "MLEEVERWLDARSWPAADRPVQHLLSAKHATGQSVSVVLPALDEEATVGDIVSVIRRELVLGVPLVDEIVVVDSGSSDRTSEVAAAAGARVVHRDAILPRIPAVPGKGEVLWRSLLVTGGDIVCFVDADLREFSADFVSGIVGPLLTDPDVHLVKAMYDRPLAGAAGQGGRVTELMARPLLNMHWPQLAGFVQPLGGEYAARRSLLERLPFPVGYGVELGMLVDALHLVGLDALAQVDVGVRVHRHQDGRALGRMAAAIYRTAQLRLARGHLVRPALTQFERGVDGFEPRTYAVDTEERPPMTEIAEYAARKVALEHHHHHH", "values": [{"measurement": "protein production", "result": "not failed"}]}
{"sequence": "MGAVGRGRRMSERHLRRSTHKVGDITLGAVHRLNCHCGAVQIDLDLPHGLVDPRRCDCSMCRRRGAIVASVPLQGLHVRQGEDVLRLYQFNTHAAAHYFCGVCGIYTHHRRRSNPNEYGYNVGCLEGVNPYALNITVPVEDGIHHPADRVAPQLEHHHHHH", "values": [{"measurement": "protein production", "result": "failed"}]}
{"sequence": "MSYSPSLKEIIAILQKYTSKNYQSNCKTRPDGKLELSLNGVFEEIVKTPGKTRYVTHKQLDQKLKDFKQDLMVELHDTFATKTDLKESEARINQKLEALIQIVMVQGEQIKVHGEQINKLTQAVEKQGEKIEAQGQQIQKVNETLNFVVESLGSIHKRLDSMEGRLDSMENRLDKLESKLEHHHHHH", "values": [{"measurement": "protein production", "result": "not failed"}]}
{"sequence": "MKIQDLLRKDIMILDLQAISKEVAIDEMITKLVEKDIVHDFDVFKKSIMTREEQTSTGLGDGIAMPHSKNIVVDKPAVLFAKSNKGVDYKALDGQPTDLFFMIAAPQGANDTHLAALAELSQYLLKDGFADKLRAAATPEAVIAVFDEASTAKEEV", "values": [{"measurement": "protein production", "result": "failed"}]}
{"sequence": "MSLNYEESNLIVFGVGFDGTTSNRPGARFASSSMRKEFYGLETYSPFLDLDLEDYNICDYGDLEISVGSTEQVLKEIYQETYKIVRDSKVPFMIGGEHLVTLPAFKAVHEKYNDIYVIHFDAHTDLREEYNNSKNSHATVIKRIWDIVGDNKIFQFGIRSGTKEEFKFATEEKHTYMEIGGIDTFENIVNMLNGKNIYLTIDLDVLDASVFPGTGTPEPGGVNYREFQEIFKIIKNSNINIVGCDIVELSPDYDTTGVSTVIACKILRELCLIISDKIKEGHHHHHH", "values": [{"measurement": "protein production", "result": "not failed"}]}
{"sequence": "MDRMDKAAKINIINANVRNAQTGDYYYNPYKIVNKTFTDTDGKQVTLKIGITGVLPTQILVWDKANLEGKVTVDDPMEAVKTIVPQMKAAGADFILVAAHSGIGDNEYTKNEENEGYQIAGIEGVDAVATGHSHADFPNGDGTSFYAKYPGVDDVNGLINGKPVVMAGKFGDHLGIMDVKLTYTDGKWKVVNSKAKLEKIDTKSDIADKALIDMAAHDHDGTILTMFVRKLVRPLPQSLAILLKFRTIHLFKS", "values": [{"measurement": "protein production", "result": "failed"}]}
{"sequence": "MRRLFPEESEALLFKTLNYIPIPILLSEALAVEGRRPSTHRIHRFMNHAFVEQLGYNLSEIPNIAAWFDTVYPDPIIREQAMLEWDSVVYESEQQGLSTAGFKTFIRCGTGQFRWFLINAQLTTENQSNLNIVTMRDVHQLQLLLEENERQSKTDLLTGLANRRQIEDVLAAAMAKSDRTQSSLCVVMCDIDFFKNINDNFGHLCGDDVLKIVASQLQHSAQAATCIARWGGEEFLIVLEHVVPESAGVLCEQLRGLIAATDYQSYGQHMQLTMSFGCVQYQANESLQSLLCRVDKALYQAKNGGRNQVVMD", "values": [{"measurement": "protein production", "result": "failed"}]}
